From patent publication US20150246959A1 (published 2015)

Key:
[1] = target: T1, MAGE-A3 peptide on HLA-DPB1*04:01 (human); assay: multimer staining
T1 peptide: KKLLTQHFVQENYLEY

[2] = target: T2, MAGE-A3 peptide on HLA-DPB1*04:01 (human); assay: cytokine release
T2 peptide: KKLLTQHFVQEN

[3] = target: T3, MAGE-B10 peptide on HLA-DPB1*04:01 (human); assay: cytokine release
T3 peptide: KDLVKENYLEY

[4] = target: T4, MAGE-A2/A12 peptide on HLA-DPB1*04:01 (human); assay: cytokine release
T4 peptide: QDLVQENYLEY

[5] = target: T5, MAGE-A3 peptide on HLA-DPB1*04:01 (human); assay: cytokine release
T5 peptide: QHFVQENYLEY

[6] = target: T6, MAGE-B2 peptide on HLA-DPB1*04:01 (human); assay: cytokine release
T6 peptide: KDLVQEKYLEY

[7] = target: T7, MAGE-A1 peptide on HLA-DPB1*04:01 (human); assay: cytokine release
T7 peptide: KKLLTQDLVQEKYLEY

[8] = target: T8, MAGE-A3 peptide on HLA-DPB1*04:01 (human); assay: cytokine release
T8 peptide: KKLLTQHFVQE

[9] = target: T9, MAGE-A3 peptide on HLA-DPB1*04:01 (human); assay: cytokine release
T9 peptide: LLTQHFVQENYLEY

[10] = target: T10, MAGE-B16 peptide on HLA-DPB1*04:01 (human); assay: cytokine release
T10 peptide: KDFVKEKYLEY

[11] = target: T11, MAGE-A3 peptide on HLA-DPB1*04:01 (human); assay: cytokine release
T11 peptide: TQHFVQENYLEY

[12] = target: T12, MAGE-A12 peptide on HLA-DPB1*04:01 (human); assay: cytokine release
T12 peptide: KKLLTQDLVQENYLEY

[13] = target: T13, MAGE-A6 peptide on HLA-DPB1*04:01 (human); assay: cytokine release
T13 peptide: QYFVQENYLEY

[14] = target: T14, MAGE-L2 peptide on HLA-DPB1*04:01 (human); assay: cytokine release
T14 peptide: KKLITEVFVRQKYLEY

[15] = target: T15, MAGE-A8 peptide on HLA-DPB1*04:01 (human); assay: cytokine release
T15 peptide: QEWVQENYLEY

[16] = target: T16, MAGE-A3 peptide on HLA-DPB1*04:02 (human); assay: cytokine release
T16 peptide: QHFVQENYLEY

[17] = target: T17, MAGE-G1 peptide on HLA-DPB1*04:01 (human); assay: cytokine release
T17 peptide: KKLITEDFVRQRYLEY

[18] = target: T18, MAGE-A4/A9 peptide on HLA-DPB1*04:01 (human); assay: cytokine release
T18 peptide: QDWVQENYLEY

[19] = target: T19, MAGE-C1 peptide on HLA-DPB1*04:01 (human); assay: cytokine release
T19 peptide: KVWVQEHYLEY

[20] = target: T20, Necdin peptide on HLA-DPB1*04:01 (human); assay: cytokine release
T20 peptide: EEFVQMNYLKY

[21] = target: T21, MAGE-A3 peptide on HLA-DPB1*04:01 (human); assay: cytokine release
T21 peptide: LTQHFVQENYLEY

[22] = target: T1, MAGE-A3 peptide on HLA-DPB1*04:01; assay: cytokine release

B1: 6F9 TCR (TCR, V domains shown)
Valpha: AQTVTQSQPEMSVQEAETVTLSCTYDTSESDYYLFWYKQPPSRQMILVIRQEAYKQQNATENRFSVNFQKAAKSFSLKISDSQLGDAAMYFCALRSSGTYKYIFGTGTRLKVLA
Vbeta: GAGVSQSPSNKVTEKGKDVELRCDPISGHTALYWYRQSLGQGLEFLIYFQGNSAPDKSGLPSDRFSAERTGGSVSTLTIQRTQQEDSAVYLCASIRTGPFFSGNTIYFGEGSWLTVV
binding result [1]: recognises | binding result [2]: no recognition | binding result [3]: no recognition | binding result [4]: no recognition | binding result [5]: recognises | binding result [6]: no recognition | binding result [7]: no recognition | binding result [8]: no recognition | binding result [9]: recognises | binding result [10]: no recognition | binding result [11]: recognises | binding result [12]: no recognition | binding result [13]: recognises | binding result [14]: no recognition | binding result [15]: no recognition | binding result [16]: recognises | binding result [17]: no recognition | binding result [18]: no recognition | binding result [19]: no recognition | binding result [20]: no recognition | binding result [21]: recognises

B2: R12C9 TCR (TCR, V domains shown)
Valpha: AQTVTQSQPEMSVQEAETVTLSCTYDTSESDYYLFWYKQPPSRQMILVIRQEAYKQQNATENRFSVNFQKAAKSFSLKISDSQLGDAAMYFCAYTVPSNAGGTSYGKLTFGQGTILTVHP
Vbeta: EPEVTQTPSHQVTQMGQEVILRCVPISNHLYFYWYRQILGQKVEFLVSFYNNEISEKSEIFDDQFSVERPDGSNFTLKIRSTKLEDSAMYFCASSERGQGYGYTFGSGTRLTVV
binding result [22]: recognises | binding result [7]: no recognition | binding result [12]: no recognition
